Data taken from US20090181894A1.

Molecular target: GnRH binding sites on neoplastic cells (plasma membranes of the SW-48 colon adenocarcinoma cell line in the binding assay)
Test: binding of 125I-GnRH to plasma membranes of SW-48 cells, filter assay

125I-GnRH (from UniProt P01148) (peptide)
non-specific binding: 37%
